B1: FLAG-CHR (peptide)
peptide: MDYKDDDDKGGSWMEWDREINNYTSLIHSLIEESQNQQEKNEQELL
notes: Co-expressed with 5-Helix-His6x in E. coli; also called C-peptide; native C-peptide
B2: GLUE-Cpep (untagged) (designed binder)
chain: MEYWHYVETTSSGQPLLREGEKDIAIDQSVGLYHGKSKILQRQRGRIFLTSQRIIYIDDAKPTQNSLGLELDDLAYVNYSSGFLTRSPALILFFKDPSSSTEFVQLSFRKSDGVWFSWATEIALYTILIHSLIEESQNQQEKNEQELL
notes: Co-expressed with 5-Helix-His6x in E. coli; also called untagged GLUE-Cpep
B3: His6x-GLUE-Cpep (designed binder)
chain: MGSSHHHHHHSQDPGLNDIFEAQKIEWHEGGSGGSGGTEYWHYVETTSSGQPLLREGEKDIAIDQSVGLYHGKSKILQRQRGRIFLTSQRIIYIDDAKPTQNSLGLELDDLAYVNYSSGFLTRSPALILFFKDPSSSTEFVQLSFRKSDGVWFSWATEIALYTILIHSLIEESQNQQEKNEQELL
notes: Purified construct used in CD; also called helix-grafted GLUE
B4: FLAG-GLUE-Cpep (pET-28a construct, His6x-FLAG-GLUE-Cpep) (designed binder)
chain: MGSSHHHHHHSSGLVPRGSHMDYKDDDDKGGSEYWHYVETTSSGQPLLREGEKDIAIDQSVGLYHGKSKILQRQRGRIFLTSQRIIYIDDAKPTQNSLGLELDDLAYVNYSSGFLTRSPALILFFKDPSSSTEFVQLSFRKSDGVWFSWATEIALYTILIHSLIEESQNQQEKNEQELL
notes: Purified, pre-incubated with human serum, then tested in ELISA on biotinylated 5-helix
B5: FLAG-GLUE (other)
chain: MDYKDDDDKGGSEYWHYVETTSSGQPLLREGEKDIFIDQSVGLYHGKSKILQRQRGRIFLTSQRIIYIDDAKPTQNSLGLELDDLAYVNYSSGFLTRSPALILFFKDPSSSTEFVQLSFRKSDGVLFSQATERALENILT
notes: Co-expressed with 5-Helix-His6x in E. coli; lysate ELISA; also called wtGLUE; wt-GLUE
B6: FLAG-GLUE-Cpep (designed binder)
chain: MDYKDDDDKGGSEYWHYVETTSSGQPLLREGEKDIAIDQSVGLYHGKSKILQRQRGRIFLTSQRIIYIDDAKPTQNSLGLELDDLAYVNYSSGFLTRSPALILFFKDPSSSTEFVQLSFRKSDGVWFSWATEIALYTILIHSLIEESQNQQEKNEQELL
notes: Co-expressed with 5-Helix-His6x in E. coli; lysate ELISA; also called grafted GLUE; helix-grafted GLUE

Assays:
5-Helix-His6x [1] = biological target: T1, 5-Helix-His6x (HIV-1); assay: ELISA on E. coli lysate, His6-tagged 5-helix captured on Ni-NTA plates, anti-FLAG detection
T1 construct: also called His6-tagged 5-helix; 5-Helix bundle

5-Helix-His6x [2] = biological target: T1, 5-Helix-His6x; assay: Ni-NTA co-purification from E. coli lysate, densitometry of the protein bands
5-Helix-His6x [3] = biological target: T1, 5-Helix-His6x; assay: circular dichroism of a 1:1 mixture, wavelength scan and thermal melt
[4] = biological target: T2, AviTag-5-helix-His6x, biotinylated (HIV-1, biotin conjugated to the AviTag with BirA); assay: ELISA, biotinylated 5-helix on streptavidin plates, 50 nM GLUE-Cpep pre-incubated in human serum, anti-FLAG detection
T2 construct: also called Biotinylated 5-helix; AviTagged 5-helix; not shown: N-terminal AviTag and any linker

Binder	binding result (5-Helix-His6x [1])	other results
B1	binds	–
B2	–	ratio of proteins in the complex (stoichiometry) (5-Helix-His6x [2]): 1 ratio (1:1)
B3	–	binding result (5-Helix-His6x [3]): binds
B4	–	binding result [4]: binds
B5	no binding	–
B6	binds	–

— patent US20160152676A1 (COLORADO STATE UNIVERSITY RESEARCH FOUNDATION, published 2016)
